The data set has as its system F1*sub RNA substrate (template-directed ligation). The data set can be described thus: fraction ligated after 30 min (ligated reads / total reads); higher = more ligase activity; sequences stand for … in GAGACCGCAACTGAAAAGTTGT…AGTTCTGCACGTAGAAGCAAAAGGC
The conditions noted are these: 42 °C. In short, it runs like this: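 Ribozyme variants were transcribed with T7 from PCR-amplified oligo-pool templates and gel-purified. Ligated and unligated bands, separated on gel, were reverse transcribed with barcoded primers and sequenced on a MiSeq, with core bases filtered at quality ≥20. Fraction ligated per variant was computed as ligated reads divided by total reads.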
“TATCACTGTCGTAAACACTTTGGATGGGTTA [3d1406]” yielded a fraction ligated of 0.761.

With “TATCCTTGTCGTAAGACACTTGGATGGGTTG [3d1103]”, the fraction ligated came to 0.742.

“TATCATGTCGTAAGAACTTTGGATGGGTTGA [3d1130]” displayed a fraction ligated of 0.848.

With TATACTTGTCGTAGACACTTTGGATGGGTTG [3d882], the fraction ligated is 0.232.

With “TATCCTTGTCGTAAGACACTTGGAGGGTTGA [3d1100]”, the fraction ligated is 0.00692.

Sequence “TATCACTTGTCTAAACCTTTGGATGGGTTGA [3d1837]” displayed a fraction ligated of 0.789.

“TATCACTGCGTAAGACACTTTGGATGGGTTG [3d1342]” returned a fraction ligated of 0.834.

“TATCACTTGTCGTAAACACTTTGGAGGTTGA [3d2098]” showed a fraction ligated of 0.0433.

Sequence “TATCACTTGTCGTAAGACACTTTGATGGTTGA [2d286]” returned a fraction ligated of 0.0395.

As for ATCACTTGTCGTAACACTTTGGATGGGTTGA [3d199], the fraction ligated is 0.779.

With “TATCACTTGTCGTAAGACACTTTATGGGTTGA [2d283]”, the fraction ligated turned out to be 0.0284.

“TATCACTTGTCGAAAACTTTGGATGGGTTGA [3d1915]” returned a fraction ligated of 0.798.

The sequence “TATCATTGTGTAAGACACTTTGGATGGGTTG [3d1186]” had a fraction ligated of 0.786.

Consider ATCACTTGTCGTAAGCACTTTGGTGGGTTGA [3d226], for which the fraction ligated is 0.0296.

In turn, “TATCATTGTCGTAGACACTTTGGATGGGTTGA [2d115]” returned a fraction ligated of 0.798.

For “TATCACTGTCTAGACACTTTGGATGGGTTGA [3d1359]”, the fraction ligated is 0.822.

TACACTTGTCGTAAGACACTTTGGAGGGTTG [3d733] registered a fraction ligated of 0.0821.

Take ATCACTTGTCGTAAGACATTTGGATGGTTGA [3d250]: the fraction ligated turned out to be 0.445.

In turn, “TATCACTTGTCTAAGACACTTTGGGGGTTGA [3d1891]” showed a fraction ligated of 0.118.

The sequence TATACTTGTCGTAAGACCTTTGGATGGGTTA [3d916] had a fraction ligated of 0.059.

As for TTCACTGTGTAAGACACTTTGGATGGGTTGA [3d339], the fraction ligated was 0.766.

Turning to TTCACTTGTCGAAGAACTTTGGATGGGTTGA [3d419], the fraction ligated is 0.45.

Sequence TACACTTGTCGTAAGACACTTGGATGGGTTG [3d720] returned a fraction ligated of 0.106.

As to TTCACTTTCGTAGACACTTTGGATGGGTTGA [3d358], the fraction ligated stood at 0.142.

“TATCACTTGTCGTAAGCACTTGGATGGGTTG [3d2134]” showed a fraction ligated of 0.76.

On to “TATCACTTGTCGTAAGACATTGGATGGGTTA [3d2212]”, for which the fraction ligated was 0.78.

Turning to TTCACTTGTCGTAGACACTTTGGATGGGTTG [3d441], the fraction ligated is 0.801.

For “TATCACGTCGTAAGACACTTTGGTGGGTTGA [3d1306]”, the fraction ligated turned out to be 0.721.

In turn, TACACTTGCGTAAGACACTTTGGATGGGTTG [3d616] yielded a fraction ligated of 0.118.

Consider “TATCACTGCGTAAGACCTTTGGATGGGTTGA [3d1334]”, for which the fraction ligated worked out at 0.857.

Sequence “TATCACTGTCGTAAACCTTTGGATGGGTTGA [3d1399]” had a fraction ligated of 0.806.

Sequence “TATCATTGCTAAGACACTTTGGATGGGTTGA [3d1157]” returned a fraction ligated of 0.784.

TATCCTGTCGTAAGACACTTGGATGGGTTGA [3d961] had a fraction ligated of 0.794.

Consider “TATCACTTGTCGTAGCACTTTGGATGGGTTA [3d2011]”, for which the fraction ligated was determined as 0.728.

“TATCACTTGCGTAAGACACTTTGGAGGGTTA [3d1699]” came in with a fraction ligated of 0.122.

Regarding “TATCACTTGTCGTAAGACACTGGATGGTTGA [3d2235]”, the fraction ligated stood at 0.0538.

“TATCCTTGTCGTAAGACATTGGATGGGTTGA [3d1090]” registered a fraction ligated of 0.772.

In the case of “TATCATTGTCGTAGACCTTTGGATGGGTTGA [3d1218]”, the fraction ligated was found to be 0.788.

“TATCACTTGTCGTAGACATTTGGATGGTTGA [3d2032]”: the fraction ligated was 0.147.

As to TCACTTGTCGTAAGCACTTTGGATGGGTTGA [3d13], the fraction ligated was found to be 0.608.

Sequence “TATCACTTTCGTAAGACCTTGGATGGGTTGA [3d1547]” yielded a fraction ligated of 0.766.

Consider “TATCACGTCGTAAGAACTTTGGATGGGTTGA [3d1301]”, for which the fraction ligated stood at 0.825.

As to “TATCACTGTCAAGACACTTTGGATGGGTTGA [3d1358]”, the fraction ligated was 0.817.

In turn, “TATCATTGTGTAAGACACTTTGGATGGGTTGA [2d112]” returned a fraction ligated of 0.824.

The sequence TACCTGTCGTAAGACACTTTGGATGGGTTGA [3d528] yielded a fraction ligated of 0.655.

In the case of TTCACTTGCGTAAGACACTTTGGTGGGTTGA [3d382], the fraction ligated was 0.00525.

For “TATCACTTGTCGTAAGACACTTGAGGGTTGA [3d2240]”, the fraction ligated was 0.00563.

Consider TTCCTTGTCGTAAGCACTTTGGATGGGTTGA [3d306], for which the fraction ligated was 0.772.

In turn, “TATCACTTGTCGTAAGAACTTGGATGGGTTG [3d2165]” displayed a fraction ligated of 0.777.

In turn, TACACTTGTCGTAGACACTTTGGATGGGTTA [3d670] had a fraction ligated of 0.0913.

The sequence “TATCATTGTGAAGACACTTTGGATGGGTTGA [3d1173]” gave a fraction ligated of 0.824.

Take “TATCACTTGCGTAAGACACTTTGGTGGGTTG [3d1697]”: the fraction ligated stood at 0.038.

The sequence TTCACTTGTGTAAGACACTTTGGATGGGTTA [3d400] gave a fraction ligated of 0.132.

For the sequence TTCACTTGCGTAAGACACTTTGATGGGTTGA [3d381], the fraction ligated came to 0.055.

“TATCACTTGTCGTAAGACTTTGGATGGGTTG [3d2113]” gave a fraction ligated of 0.796.

“TATCACTTGCTAAGAACTTTGGATGGGTTGA [3d1603]” yielded a fraction ligated of 0.831.

In turn, ATCACTTGTCGTAAGACACTTGGATGGTTGA [3d257] showed a fraction ligated of 0.216.

In turn, “TATCACTTGTCTAAGACCTTTGGATGGGTTG [3d1870]” displayed a fraction ligated of 0.755.

TTCACTTGTGTAAGACACTTTGGTGGGTTGA [3d397]: the fraction ligated amounted to 0.00981.

On to TTCACTTGTGTAAGACACTTTGGATGGGTTGA [2d31], for which the fraction ligated came out at 0.781.

As to “TATCACTGTCTAAACACTTTGGATGGGTTGA [3d1360]”, the fraction ligated turned out to be 0.816.

“TATCACTTGCTAAGACACTTTGGTGGGTTGA [3d1608]” displayed a fraction ligated of 0.11.

In turn, TATACTTGTCGAGACACTTTGGATGGGTTGA [3d857] showed a fraction ligated of 0.704.

Turning to “TATCACTTGTCGTAAGCACTTTGATGGGTTGA [2d248]”, the fraction ligated came to 0.751.

For TATACTTGTCTAAACACTTTGGATGGGTTGA [3d845], the fraction ligated stood at 0.791.

Sequence TACACTTGTCGTAGACACTTTGGATGGGTTGA [2d56] returned a fraction ligated of 0.617.

As to “TATCCTTGTCGTAAGACATTTGGATGGGTTA [3d1095]”, the fraction ligated turned out to be 0.455.

Turning to “TATCACTTGTCGTAAGACACTTTGATGGGTT [3d2269]”, the fraction ligated was 0.017.

TATCTTTCGTAAGACACTTTGGATGGGTTGA [3d740] had a fraction ligated of 0.837.

The sequence “TATCACTTGCGTAAACATTTGGATGGGTTGA [3d1641]” displayed a fraction ligated of 0.822.

Turning to “TATCATTGTCGTAGCACTTTGGATGGGTTGA [3d1216]”, the fraction ligated was determined as 0.814.

As to ACACTTGTCGTAAGACACTTTGGATGGTTGA [3d43], the fraction ligated was 0.662.
